According to the DeepSol protein solubility set:

test: soluble on expression in E. coli; label from the status in PepcDB or PDB records

| Sequence | soluble on expression in E. coli |
| --- | --- |
| MEIDWLNAIPDSEDSEEDEEERQERARLLKEKEEEREACKKRYLERIEREEAQRFGKQFKIDPLTFAERLERKLIPAEKKQRYREFIPCVVDHFGGTDVHFVKAMESIKTENQLLDFLTAAHKPLIEQTEDSVLHDWLAEFYKETVTSLLEMTSITDHDLKCFKVGNVFDEVRTNAIQKKVQKMEMENFAERVREAKIKEAEERKATAEATRDVLESLEGMTLSHVKHDELEDELNTIALEELHSTTRDTSPPRTRLSTRAQSQLNAMVKHLFVPAAPTTSTEVPMEMDKDDDEMDAYDDSDLKILFSSTTKESLKMEMGEENDECNFEPSQVSKYPSFQASSQFDETRRYDYDEEGDNKELARLRRPTWRKILNYEKRIGTNFHRFTNAENANLWRRNLYEDKRKKTSKVQFVDYDSPLNKMRLFVRPNEQFFNADDGPMTDRIDFSLSDGFNVLATRKIMSPLVCGSNYDCEFMARTREGPQYLVRKTQSWMHSYCGNILGRFWYLRDRHADKYPGVKDSNYDQKRRQNFGLLRYYTLEELIEVFGLLLPDVQIAMRRGVRRENMPVSTVVKLKEKDREAVESPVQGVLLLTDWRLVHLFDNTAIVNAIIHYFPTNLGGVFFEAMTEYLTELLLDNTIEFHTIIFAFGGTPTFKKQDFLAFWKKLIVRTTQSIDVFWMAQDWCDGLNSTQEEIDQLNEFNHYVEQMFTMMRKNGNINYNYCDIRKQYNIPSLDPSFNRPNDFLLLEPIYRAYINHFVDECNCYLKGPFVKCQPRVHNGYAQRNGTKLEFSK | soluble |
| MEIEKENGSKRLAVLIDADNAQASVLGELLAEISKYGTLNIKRAYGDWTSSNLKSWKEHLHKYAIAPIQQFNYTSGKNATDSALIIDAMDLLHDAPLEGFCLVSSDSDFTRLATRIRESGLVVYGFGEKKTPEAFVAACDKFIYTEILRQEEQRRPESSWNDSWSKSESKALKSIIQPAIKATMKEDDWVPLASIGLYISKNHPAFDPRNYGYDKLGRLIETLDFVELKKIPFKDGSSNTHVMVRLRSLEHHHHHH | not soluble |
| MEIERKFLVLNDDFKAKATAVHNIIQAYLVADERCTVRIRLCNDEAYLTIKGKTNEGGLSRSEYEYSVPFEEAKEMLTLCLPGYIMKQRYCVPHKGHVWEVDVFEGRHKGLVIAEVELATEDESIELPDWIGNEVTGDKRYYNSFIAGIQK | soluble |
| MEILRRECGAVEENAYIVKLSSGIDFIIDPGFSSSEWVLENAKNPKAILITHGHYDHVWDGAQLSKLLKNTPIYAPKDDVFMLENDIFHLGMPVFSPNFSVPCNKGCTTLEIANTTIKYWHFPGHTPGCSIIEIEGVIFSGDFIFYRSIGRYDFPYSNEKDMKESLLRFQNLDFPKDIEIYPGHGDKTSFFAEREHSKIWVSRMALEHHHHHH | not soluble |
| MEKEKSLMKKQSKKSKKQNIEINYLDLIPVRSEELHWHKDIKGRVILDVENTGWFNKIAQTVFNKPQYTKVHLDAQGTFIWPLIDGKRTVTDIAALVKEEFGEAAEPLYPRIIKYFQIVESYHFIKFANMPSK | not soluble |
| MEKGTPPTHDSDNWMGRAKEIGNGGWDQFQFLFFDPNGYLYAVSNDKLYKASPPQSDTDNWIARATEIGSGGWSGFKFLFFHPNGYLYAVRGQRFYKALPPVSNQD | soluble |
| MEKIIITATAESIEQVKALLAAGVDRIYVGEANYGLRLPHNFSYDELRQIAKLVHDAGKELTVACNALMHQDMMDQIKPFLDLMIEIAVDYLVVGDAGVFYVNKRDGYNFKLIYDTSVFVTSSRQVNFWGQHGAVESVLAREIPSAELFTLAENLEFPAEVLVYGASVIHHSKRPLLENYYHFTKIDDEVSRERGLFLAEPGDASSHYSIYEDNHGTHIFINNDIDMMSKLGELYAHGLTHWKLDGIYCPGDDFVAITKLFIQAKTLLEAGQFTQEEAEKLDQAVHAHHPAGRGLDTGFYEFDPKTVK | not soluble |
| MEKKITQEGLARMIDKGMGTLLALPEIEKKKKSGDLPDNFKMEDGFGVYRVEVGGNEYLCVTNILCNKCERVNGKVKRCEAHKKKRKARKVRKDGDVADDTSDREKLGGLRHVNDEEEEEDKIEGAVTPDFVMTPGIGGAIILVPVDAKNNDRAGPPAKGLNHVKGILVRGAGNIPQFIPNDRLTKAHKLRFDNYIEGELNLVNGKEVFVPNNLGAAKMDEKNAQDVAKAAVADKVDQKVVDAIGKDMVVAVQVDVADNGMPVMKVLEGKPKDKETPVGIIVKANDQVQFVQIVGRELGGGKDAKMMPCTIPENGKVGDVIADVYVNKEGKAVSAKPGDAPAGAPVIGQVIVGQNDQLVFVAKGENKDDAVKKGAKMTPEMKEKLEQAQAKVQAAVTGQSADHIQEQVNRIGVPEAAATSAANGGNNAGGGGSSAEVRSVGFGAQQFGGSQFARPIPAGGGGGGSGGYGAGGGGSGGYGAGGAGGARNSASNGSYGSSANEVKSVGFGAQQYGGSVFAKPSGTGGGYVSAGSSARKSGESGAGGGGAGGGKAGGAKNSASYGSSANEVKSVGFGAQQYGGSVFIRK | not soluble |
| MEKLRMNVQGRVQGVGFRYMTKMVADQLGVTGSVRNEDDGSVSITAIAPEDIMETFIKKIKDSPSPAGRVTYVDIQEDPLLEETEQFKVIQ | soluble |
| MEKPVICRIKEIIEESPTVKTFVVDKDFDFKPGQFAMLWLPGVDEKPFGFSSKNSFSVARVGEFTKKMHELKEGDIIGVRGPYGTYFEPIGDKVLAVAGGIGAAPIITAVEEFSKQGIEITTILGARTKEELLFLDRFEKVSRLEICTDDGSFGFKGFTTEKMKEVLKEEKFDLIITCGPEIMMKKVVEIANEYNIPVQVSMERYMKCGIGICGQCCVDDEGLCVCKDGPVFWGDKLKFIREFGKYKRDASGKKIYY | not soluble |
| MEKTRANSHLRSQPIDWTIEEVIQYIESNDNSLAVHGDLFRKHEIDGKALLRLNSEMMMKYMGLKLGPALKICNLVNKVNGRDHHHHHH | soluble |
| MELACHECGFKGEVQDFAFLCKNGCPACGESDMRQCPRCGAHVMFSRAAALEKEEMQMRDLCRELAGIERSDKPEVQKRAMELIGGLRRMNERWNIPQLGDFIKQRSRELFF | not soluble |
| MELDFDKMNGLVPAIIQDNETRKVLMLGFMNKEAYDKTVETGKVTFFSRTKNRLWTKGEESGNFLHVVSIKADCDNDTLLIQADPAGPVCHTGTDTCWGEKNEEPVMFLKALQDFIDKRHEEMPQGSYTTSLFESGINKIAQKVGEEAVETVIEATNGTNERLIYEGADLIYHMIVLLTSKGYRIEDLARELQERHSSTWKKH | not soluble |
| MELKKIVEAILFSSSEPVDARELRKITGKDKVEILNAIGELIKDYESRDTSIEIIKVGEKYLMRVKPQYAEYVERFTVREFDRGTLRTLAVIALKQPITLAKVAKIRGNKCYEHVKKLQERGLVKAEKKGRSTILTTTEEFATYFGLDSAEPEKIKEALKGYLEAE | soluble |
| MELLCCEGTRHAPRAGPDPRLLGDQRVLQSLLRLEERYVPRASYFQCVQREIKPHMRKMLAYWMLEVCEEQRCEEEVFPLAMNYLDRYLSCVPTRKAQLQLLGAVCMLLASKLRETTPLTIEKLCIYTDHAVSPRQLRDWEVLVLGKLKWDLAAVIAHDFLAFILHRLSLPRDRQALVKKHAQTFLALCATDYTFAMYPPSMIATGSIGAAVQGLGACSMSGDELTELLAGITGTEVDCLRACQEQIEAALRESLREASQTSSSPAPKAPRGSSSQGPSQTSTPTDVTAIHLLEHHHHHH | not soluble |
| MELRAVQEVLKEERLDGWLLYSFGGSNPLALEVLGLAHLHLTRRFAYLIPREGAPTLLCHAIEASLFPPLPGNRKTYHTWRGFLEGLAHLLGGMRRVALEYVPGGQIPYLSRVDGGTLDLLRGLGLELASSWPLLLLFQTWDEERLQSHRRAAAGLARAKDLALDFLRQNPEASEREVQSVLVRALEGEGLIFDHPPMVAFGKNAANPHHEPSEVRLEEGAVVLLDLWAKAPGGVYADLTWMAGKRPPEAAHRAFQAVARARDEAIAFVERAYREGRYPKGFEVDRLARKVLEEEGYGPYIRHRTGHNLGEEVHGSGPHLDDLETHDLRPLVPGLAFTVEPGVYLEAFGVRTEVDVYLHPTGPEVTTPLQEAITPL | soluble |
| MELRIFFDGNCPLCSAEMRQLKARDPDDHIELVDLNAENFSSRFSYIDKDYANTILHGETASGQVLLGLDVTCKAWALTGTRPWIQVLRLPLIKPLADWCYLRFAKHRYRISYLLTGKARCDSQCQLPKLEHHHHHH | soluble |
